Measurements from article PMC6326742 (Cell, 2018).

Molecular target: the molecule itself
Experiment: SEC-MALS

B1: Ptch1-B (stabilized mouse PTCH1 variant, SBP-tagged, purified) (receptor, UniProt Q61115 1-1291, looked up)
chain: MASAGNAAGALGRQAGGGRRRRTGGPHRAAPDRDYLHRPSYCDAAFALEQISKGKATGRKAPLWLRAKFQRLLFKLGCYIQKNCGKFLVVGLLIFGAFAVGLKAANLETNVEELWVEVGGRVSRELNYTRQKIGEEAMFNPQLMIQTPKEEGANVLTTEALLQHLDSALQASRVHVYMYNRQWKLEHLCYKSGELITETGYMDQIIEYLYPCLIITPLDCFWEGAKLQSGTAYLLGKPPLRWTNFDPLEFLEELKKINYQVDSWEEMLNKAEVGHGYMDRPCLNPADPDCPATAPNKNSTKPLDVALVLNGGCQGLSRKYMHWQEELIVGGTVKNATGKLVSAHALQTMFQLMTPKQMYEHFRGYDYVSHINWNEDRAAAILEAWQRTYVEVVHQSVAPNSTQKVLPFTTTTLDDILKSFSDVSVIRVASGYLLMLAYACLTMLRWDCSKSQGAVGLAGVLLVALSVAAGLGLCSLIGISFNAATTQVLPFLALGVGVDDVFLLAHAFSETGQNKRIPFEDRTGECLKRTGASVALTSISNVTAFFMAALIPIPALRAFSLQAAVVVVFNFAMVLLIFPAILSMDLYRREDRRLDIFCCFTSPCVSRVIQVEPQAYTEPMQSTVQLRTEYDPHTHVYYTTAEPRSEISVQPVTVTQDNLSCQSPESTSSTRDLLSQFSDSSLHCLEPPCTKWTLSSFAEKHYAPFLLKPKAKVVVILLFLGLLGVSLYGTTRVRDGLDLTDIVPRETREYDFIAAQFKYFSFYNMYIVTQKADYPNIQHLLYDLHKSFSNVKYVMLEENKQLPQMWLHYFRDWLQGLQDAFDSDWETGRIMPNNYKNGSDDGVLAYKLLVQTGSRDKPIDISQLTKQRLVDADGIINPSAFYIYLTAWVSNDPVAYAASQANIRPHRPEWVHDKADYMPETRLRIPAAEPIEYAQFPFYLNGLRDTSDFVEAIEKVRVICNNYTSLGLSSYPNGYPFLFWEQYISLRHWLLLSISVVLACTFLVCAVFLLNPWTAGIIVMVLALMTVELFGMMGLIGIKLSAVPVVILIASVGIGVEFTVHVALAFLTAIGDKNHRAMLALEHMFAPVLDGAVSTLLGVLMLAGSEFDFIVRYFFAVLAILTVLGVLNGLVLLPVLLSFFGPCPEVSPANGLNRLPTPSPEPPPSVVRFAVPPGHTNNGSDSSDSEYSSQTTVSGISEELRQYEAQQGAGGPAHQVIVEATENPVFARSTVVHPDSRHQPPLTPRQQPHLDSGSLSPGRQGQQPRRD
stoichiometry N: 2
